Experimental data published in patent US20040058357.

Biological target: PKCβII (mouse brain homogenates), P68404
Sequence (P68404 other isoform, or with tags, fused parts or gaps): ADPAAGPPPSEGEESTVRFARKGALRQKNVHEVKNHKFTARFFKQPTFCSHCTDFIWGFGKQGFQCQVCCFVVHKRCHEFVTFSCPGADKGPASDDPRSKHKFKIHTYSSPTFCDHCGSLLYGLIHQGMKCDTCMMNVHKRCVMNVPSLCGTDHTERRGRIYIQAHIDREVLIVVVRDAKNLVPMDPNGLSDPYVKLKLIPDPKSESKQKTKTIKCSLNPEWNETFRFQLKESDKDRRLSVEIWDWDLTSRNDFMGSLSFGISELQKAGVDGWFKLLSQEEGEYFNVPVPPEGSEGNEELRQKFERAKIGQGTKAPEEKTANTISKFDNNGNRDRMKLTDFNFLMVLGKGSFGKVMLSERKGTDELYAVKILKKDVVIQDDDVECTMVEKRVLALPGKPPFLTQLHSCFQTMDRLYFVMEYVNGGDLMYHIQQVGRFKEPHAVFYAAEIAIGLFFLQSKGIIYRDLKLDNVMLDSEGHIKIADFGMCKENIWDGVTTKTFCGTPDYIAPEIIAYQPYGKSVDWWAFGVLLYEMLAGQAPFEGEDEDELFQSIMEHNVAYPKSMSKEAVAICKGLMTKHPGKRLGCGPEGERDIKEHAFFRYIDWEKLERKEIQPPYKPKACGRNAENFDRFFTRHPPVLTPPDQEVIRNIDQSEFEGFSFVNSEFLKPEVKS

B1: AChE-R overexpressed in AChE-R transgenic mice (protein)
chain: EGREDAELLVTVRGGRLRGIRLKTPGGPVSAFLGIPFAEPPMGPRRFLPPEPKQPWSGVVDATTFQSVCYQYVDTLYPGFEGTEMWNPNRELSEDCLYLNVWTPYPRPTSPTPVLVWIYGGGFYSGASSLDVYDGRFLVQAERTVLVSMNYRVGAFGFLALPGSREAPGNVGLLDQRLALQWVQENVAAFGGDPTSVTLFGESAGAASVGMHLLSPPSRGLFHRAVLQSGAPNGPWATVGMGEARRRATQLAHLVGCPPGGTGGNDTELVACLRTRPAQVLVNHEWHVLPQESVFRFSFVPVVDGDFLSDTPEALINAGDFHGLQVLVGVVKDEGSYFLVYGAPGFSKDNESLISRAEFLAGVRVGVPQVSDLAAEAVVLHYTDWLHPEDPARLREALSDVVGDHNVVCPVAQLAGRLAAQGARVYAYVFEHRASTLSWPLWMGVPHGYEIEFIFGIPLDPSRNYTAEEKIFAQRLMRYWANFARTGDPNEPRDPKAPQWPPYTAGAQQYVSLDLRPLEVRRGLRAQACAFWNRFLPKLLSATGMQGPAGSAGRRGVGARQCNPSLLPLASE
PKC activity in brain homogenates (PKC assay kit, Upstate Biotechnology): Note the elevation of PKC activity in the different brain regions in the AChE-R transgenics as compered to FVB/N controls
